# Experimental data as given in US7304127.
# Where “and” joins values, the source holds several entries; their conditions need not be identical. Equal values may be shown once.
# Target: HIV-1LAI envelope gp120 labeled with radioactive iodine (HIV-1 LAI) (UniProt P03377)
# Test: 125I-gp120, peptide array
row,Molecule,counts minus background (counts per 20 min)
1,CCR5 201-218 (peptide),180
2,CCR5 165-182 (peptide),98
3,CCR5 105-122 (peptide),80
4,CCR5 161-178 (peptide),118
5,STRL33 133-150 (peptide),702 and 568
6,CCR5 237-254 (peptide),121
7,CCR5 221-238 (peptide),102
8,STRL33 29-46 (peptide),534 and 634
9,CCR5 325-342 (peptide),100
10,STRL33 113-130 (peptide),744 and 908
11,STRL33 105-122 (peptide),500 and 408
12,STRL33 309-326 (peptide),112 and 122
13,STRL33 41-58 (peptide),570 and 284
14,CCR5 241-258 (peptide),214
15,STRL33 297-314 (peptide),144 and 82.5
16,STRL33 109-126 (peptide),352 and 510
17,STRL33 61-78 (peptide),412 and 348
18,STRL33 33-50 (peptide),606 and 372

# Target: HIV-1LAI envelope gp120 labeled with radioactive iodine (HIV-1 LAI), P03377
# Test: 125I-gp120, peptide array
row,Molecule,counts minus background (counts per 20 min)
1,FLTGIVGNGLVILVMGYQ (modifications not checked) [CXCR4 49-66],246
2,IVGNGLVILVMGYQKKLR (modifications not checked) [CXCR4 53-70],238
